Assay results as given in the supplement of paper PMC12764529.
± gives the half width of the 95% confidence interval.

Columns and labels:
[1] = folding stability dG unfold from trypsin proteolysis; higher = more stable
Procedure, shortened: (§1)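 Unfolding free energy was derived, per protease or combined, by relating Bayesian-fitted K50 values from sequencing counts to a sequence-predicted unfolded-state K50 and a shared folded-state K50. The underlying digests exposed cysteine-free mini-proteins under 80 residues, in a PA-tagged cDNA display construct, to trypsin and chymotrypsin at 11 threefold-diluted concentrations and to a no-protease condition. A filter kept only designs with AlphaFold2 dimer inter-PAE above 15.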

[2] = folding stability dG unfold from chymotrypsin proteolysis; higher = more stable
Procedure, shortened: as §1

[3] = folding stability dG unfold (combined trypsin and chymotrypsin); higher = more stable
Procedure, shortened: as §1

Sequence | folding stability dG unfold [1] [kcal/mol] | folding stability dG unfold [2] [kcal/mol] | folding stability dG unfold [3] [kcal/mol]
SAGGSAGGSAMKVALVERPDGSPFLLVFDPDRPGVALLRPLDTDEVEVLPSELLKNLKITASAGGSAGGSAG [r3_451_TrMRF] | -0.509 ± 0.17 | 0.68 ± 0.13 | 0.344 ± 0.1
SAGGSAGGSAMKVGEEVEVTVRIKVDGKEYEVKAKATLDEDGNVTLEVEIKAKEGKVEIEIESAGGSAGGSA [r18_428_TrROS_Hall] | 3.42 ± 0.26 | 2.15 ± 0.14 | 2.63 ± 0.13
SAGGSAGGSAMKVITLPENADINKVIEAVEAGSPILVKIVDPKSSKTTDLPLPSKEAVEKLSAGGSAGGSAG [r3_362_JUSTAS] | -0.468 ± 0.17 | -0.394 ± 0.18 | -0.33 ± 0.15
SAGGSAGGSAMKVLVTVTLTSPDGTKTTLTEEADPAELKGVLEAALPWTVETVTVYPAEELLSAGGSAGGSA [r18_107_JUSTAS] | 1.35 ± 0.051 | 0.509 ± 0.12 | 1.04 ± 0.089
SAGGSAGGSAMKYKVTVTTTPPDGTTTTTPTVVDFKSKEEIEEYVKKKAPKDTKVEVEIEPESAGGSAGGSA [r18_60_JUSTAS] | -0.228 ± 0.085 | 0.0584 ± 0.22 | 0.0447 ± 0.19
SAGGSAGGSAMKYTVTVTLPNGTTLTLDVGTETEEEAVSETKKLIAEKYPDVKGAKIDLTKESAGGSAGGSA [r18_434_JUSTAS] | 1.88 ± 0.11 | 2.52 ± 0.038 | 2.33 ± 0.13
SAGGSAGGSAMLENARPFPIDLPTKYRLRIVLPDGRVLELEYDPKSGVPRLRVVPVEEALKRSAGGSAGGSA [r18_247_TrMRF] | 1.19 ± 0.012 | 1.59 ± 0.033 | 1.46 ± 0.036
SAGGSAGGSAMLTIPVTTPEEARELAEELLRRGYLRVEPTEDGDVTVIHPDGVPTRILVPTESAGGSAGGSA [r18_126_TrMRF] | 0.471 ± 0.043 | 0.551 ± 0.11 | 0.558 ± 0.059
SAGGSAGGSAMLVIRVYFEDTGRVLTLTADSEEEALEAIKRLLPPGAKIKKVEIFEVSEEDLSAGGSAGGSA [r18_350_TrROS_Hall] | 4.08 ± 0.071 | 4.439 ± 0.041 | 4.33 ± 0.058
SAGGSAGGSAMNRYRILLLDPENGKPLVFELPGNMTPEEAKEAAEELAERFGVTVVAIEGFPSAGGSAGGSA [r18_322_TrMRF] | 3.18 ± 0.044 | 4.362 ± 0.021 | 4.11 ± 0.057
SAGGSAGGSAMPEEVKLRVVKVKVKEVEVETDENGEKRTRVKAEVVEEREITLPKEELEKLSAGGSAGGSAG [r3_121_TrROS_Hall] | 2.35 ± 0.18 | 1.04 ± 0.074 | 1.76 ± 0.14
SAGGSAGGSAMPFRVKVPPGSRVLVTRYLPGGLEREEVELSEDEDELVVEAESGVVEVRVLDSAGGSAGGSA [r18_124_TrMRF] | 0.938 ± 0.07 | 0.969 ± 0.28 | 0.977 ± 0.21
SAGGSAGGSAMPIKYLFPKDKSLEDILDEIIKKTGKPKSEIKNIKLEEIDDEEGFYVAYVESAGGSAGGSAG [r3_26_TrMRF] | 1.36 ± 0.092 | 1.13 ± 0.13 | 1.36 ± 0.22
SAGGSAGGSAMRINIKLPGVETESVEVDPEKGMITARLKFPEGRKVEISFFPDGNVKIHPVSAGGSAGGSAG [r3_348_TrROS] | 1.14 ± 0.05 | 0.751 ± 0.066 | 0.898 ± 0.11
SAGGSAGGSAMRLRLKVKPGEKVRIRVERDGKVYEFEVTVEEGADEIEIDLPPGVKRIEIEPSAGGSAGGSA [r18_124_TrROS_Hall] | 2.76 ± 0.21 | 3.8 ± 0.095 | 3.62 ± 0.17
SAGGSAGGSAMSEEEKKKKKPKLEIKVKVEFTVDENGTVRAKVTFEDGTTLEVEIKLPPELLSAGGSAGGSA [r18_192_TrROS_Hall] | 1.92 ± 0.094 | 1.49 ± 0.059 | 1.7 ± 0.11
SAGGSAGGSAMTLEEKALESEELKKKIEEAPPSTKLITFELPGGEKITFTKNPDGSVVLSPSAGGSAGGSAG [r3_124_JUSTAS] | 0.941 ± 0.051 | 1.41 ± 0.1 | 1.2 ± 0.11
SAGGSAGGSAMTPEEIKKLFPNAKMKPFKGNGKTVIVIELPSGEKIEIVFDDGKPRIIVYKGSAGGSAGGSA [r18_13_TrMRF] | 1.36 ± 0.042 | 1.3 ± 0.091 | 1.32 ± 0.13
SAGGSAGGSAMTTVTSTTEIPPSALTVKTSVSTAPDGSLVETTTVVLPDGSVVTTTLSTVASAGGSAGGSAG [r3_7_JUSTAS] | 0.974 ± 0.035 | 1.19 ± 0.018 | 1.11 ± 0.047
SAGGSAGGSAMVVEERRLPDDLLVRTEVEPVEDNELPGPALRVTVTTVDLKTGEETPEVIPESAGGSAGGSA [r18_66_JUSTAS] | -0.713 ± 0.16 | 0.168 ± 0.03 | -0.0827 ± 0.091
SAGGSAGGSAMVVRGEDLTPEALLELLEENPEEVTLETKDHIATVKFNPETGELEITSVDDISAGGSAGGSA [r18_75_TrMRF] | 1.38 ± 0.12 | 1.73 ± 0.099 | 1.6 ± 0.13

Sequence | folding stability dG unfold [1] [kcal/mol] | folding stability dG unfold [2] [kcal/mol] | folding stability dG unfold [3] [kcal/mol]
SAGGSAGGSANGFVFKIKEVFEVDGKLFLKVTGTDKEYIIPDNAIIEPLEDDSVKVIILPPESAGGSAGGSA [r18_468_TrMRF] | 1.19 ± 0.021 | 1.35 ± 0.086 | 1.31 ± 0.061
SAGGSAGGSANIDIKVEENPGNGYRKVEVTMTVDDLRELFGNEPIPPGEERQIKMTIYLPIPSAGGSAGGSA [r18_327_TrROS] | 0.772 ± 0.13 | 1.37 ± 0.095 | 1.21 ± 0.17
SAGGSAGGSANMPPEELADWIADKFQQRHGHPVKEIEVEHDPENNNYTITVEFDDKERTITLSAGGSAGGSA [r18_145_TrROS] | -0.271 ± 0.15 | 0.839 ± 0.28 | 0.591 ± 0.22
SAGGSAGGSANRKVIQFDSPEEILEAIDEAPEDDPVIIEWHDPDGGEPWWIKFDGDEIELIMSAGGSAGGSA [r18_407_TrROS] | -0.66 ± 0.23 | -0.277 ± 0.41 | -0.511 ± 0.45
SAGGSAGGSAPDIKIEKIGENTYKITLNFEFTFEDGSKVKVKITFTFTVNFPEDDPLLKELFSAGGSAGGSA [r18_215_TrMRF] | 2.71 ± 0.061 | 3.213 ± 0.028 | 3.02 ± 0.11
SAGGSAGGSAPDNVEIEVYELPAGMYRVKIWPPGGNRHEFNFPPGEPKKIKIPPGVSIEIWPFSAGGSAGGS [r12_517_TrROS] | 0.462 ± 0.15 | 0.763 ± 0.29 | 0.743 ± 0.22
SAGGSAGGSAPELVKKIAEELPVPVKVEPFGNVLLVELELPNEDGEPVKLRLAIPIPPELLGSAGGSAGGSA [r18_27_TrMRF] | -0.195 ± 0.11 | 0.909 ± 0.12 | 0.463 ± 0.19
SAGGSAGGSAPGKSITITFLFIWPDGWILVMKITFDPDGPGDIDIEWQWIPIPPPEPPPEDPSAGGSAGGSA [r18_409_TrROS] | 3.61 ± 0.29 | 5.37 ± 0.32 | 5.16 ± 0.46
SAGGSAGGSAPIKITEHTYNPGDGMVWATAEAEDPNGWKIKLTIWFFPDGNIQIEITEIVPSAGGSAGGSAG [r3_7_TrROS] | 2.45 ± 0.18 | 4.39 ± 0.14 | 3.83 ± 0.28
SAGGSAGGSAPKEVVVLDLKISPVPDPRYFPAEFTVYIPENGKPFPVTAVFDPEGGEVTIGSAGGSAGGSAG [r3_1_TrMRF] | 2.7 ± 0.071 | 3.23 ± 0.1 | 3.04 ± 0.12
SAGGSAGGSAPKPIEITFPAKSLEEAKIAAEEIKRAFEELEDVKVEVEYDPETGTVTVRVYGSAGGSAGGSA [r18_368_TrMRF] | 2.88 ± 0.12 | 3.58 ± 0.07 | 3.38 ± 0.088
SAGGSAGGSAPKVEPHPVTFTFENAVVTVTRYRVPDEDGNPLYFTSVSVFFLDKDGKPGFVFPSAGGSAGGS [r20_13_TrMRF] | 3.28 ± 0.076 | 4.82 ± 0.069 | 4.35 ± 0.18
SAGGSAGGSAPLIELRPPEEPLFLPLENLLGRGIPLEELAKLLEKLTGRKVEPVKPGYIRTGSAGGSAGGSA [r18_7_TrMRF] | -0.192 ± 0.38 | -0.128 ± 0.25 | -0.161 ± 0.44
SAGGSAGGSAPNLEVEEQRNPDGGMEMEIIRLKNDGLTIFFMEMRPDDKTMTMLMLMPLDASAGGSAGGSAG [r3_126_TrROS] | 2.19 ± 0.19 | 2.32 ± 0.13 | 2.48 ± 0.19
SAGGSAGGSAPNMDWVMIPIRVPPGEPPKVKITFPDGPTREFDPGRWVWIWFPPGDPMKIEPESAGGSAGGS [r12_553_TrROS] | 1.04 ± 0.035 | 1.87 ± 0.13 | 1.54 ± 0.15
SAGGSAGGSAPPLKILRPEATVHPDGGVTVVAELEGGYLVVETVTFDPETGTASSSVEIVPLDSAGGSAGGS [r20_15_TrMRF] | -0.813 ± 0.12 | 1.03 ± 0.015 | 0.705 ± 0.047
SAGGSAGGSAPPNDWYVGIMEITININIDADQLPPPLREKFEKNGIKEIRITFVSVFPPDDFSAGGSAGGSA [r18_127_TrROS] | 2.76 ± 0.21 | 3.56 ± 0.11 | 3.14 ± 0.19
SAGGSAGGSAPPYKYVQIELWIPGPIEEIADELQDNFGIRSIDVKRDPENGWVRADIYFQFPSAGGSAGGSA [r18_275_TrROS] | 2.07 ± 0.046 | 2.444 ± 0.024 | 2.26 ± 0.14
SAGGSAGGSAPRVRYRRRVLVYFPADGSVVPVVLEVSPGPLTLRLDLPAASFPPVRIAPLGSAGGSAGGSAG [r3_454_TrMRF] | 1.28 ± 0.066 | 2.58 ± 0.098 | 1.98 ± 0.14
SAGGSAGGSAPVAYTITITYRDPDGSTRTLTLTFPNLTPEEAKEAAEALPIPASVVSIDITKASAGGSAGGS [r12_886_JUSTAS] | 2.24 ± 0.059 | 3.745 ± 0.035 | 3.29 ± 0.082
SAGGSAGGSAPVFLRVEVENPNGERFELTAKLGDPIEIDPSVVDNVKVEVFDPDGNKAEFELNSAGGSAGGS [r12_380_TrMRF] | 0.284 ± 0.042 | 0.611 ± 0.057 | 0.506 ± 0.069
